Experimental data published in patent publication US5851983, “Elastase inhibitory polypeptide and process for production thereof by recombinant gene technology” (Teijin Limited, dated 1998).
Where two headings read alike, the source gives them in different places. No end group written: not given here.

T1: Human cathepsin G (EPC Co., Funakoshi Yakuhin) (human, UniProt P08311)
T1 sequence: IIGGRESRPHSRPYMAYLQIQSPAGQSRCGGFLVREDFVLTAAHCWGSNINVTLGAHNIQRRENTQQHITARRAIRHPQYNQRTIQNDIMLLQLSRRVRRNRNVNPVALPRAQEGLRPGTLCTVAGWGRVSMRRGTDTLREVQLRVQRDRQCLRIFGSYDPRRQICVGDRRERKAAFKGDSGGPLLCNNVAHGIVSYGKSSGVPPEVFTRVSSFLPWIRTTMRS

B1: (Asn^55 -Ala^107) SLPI fragment polypeptide (other)
chain: NPTRRKPGKCPVTYGQCLMLNPPNFCEMDGQCKRDLKCCMGMCGKSCVSPVKA
modifications: also: intramolecular disulfides in refolded form, pairing not given here
B2: Human secretory leukoprotease inhibitor (SLPI) (other)
chain: SGKSFKAGVCPPKKSAQCLRYKKPECQSDWQCPGKKRCCPDTCGIKCLDPVDTPNPTRRKPGKCPVTYGQCLMLNPPNFCEMDGQCKRDLKCCMGMCGKSCVSPVKA
B3: (Arg^59 -Ala^107) SLPI (other)
chain: RKPGKCPVTYGQCLMLNPPNFCEMDGQCKRDLKCCMGMCGKSCVSPVKA
B4: (Arg^58 -Ala^107) SLPI (other)
chain: RRKPGKCPVTYGQCLMLNPPNFCEMDGQCKRDLKCCMGMCGKSCVSPVKA

Assays:
[1] = biological target: Calf pancreatic chymotrypsin (Sigma) (calf (bovine), UniProt P00766); assay: cell-based or functional assay
[2] = biological target: Porcine pancreatic elastase (Sigma) (porcine, UniProt P00772); assay: cell-based or functional assay
[3] = biological target: Human plasma thrombin (human, UniProt P00734); assay: cell-based or functional assay
[4] = biological target: Human plasma plasmin (human, UniProt P00747); assay: cell-based or functional assay
[5] = biological target: Human plasma kallikrein (human, UniProt P03952); assay: cell-based or functional assay
[6] = biological target: T2, Polymorphonuclear leukocyte elastase from human sputum (EPC Co.; Funakoshi Yakuhin) (human, UniProt P08246); assay: enzyme inhibition with chromogenic substrate, Ki by the Dixon method
Experimental: (§1) To each well of a 96-well ELISA microplate were added 140 μl of the above-mentioned buffer, 20 μl of a test solution, and 20 μl of the enzyme solution, and the mixture was stirred at 37° C. for 30 minutes. Next, 20 μl of the substrate solution was added to the well, the mixture was stirred at 37° C. for one hour to develop same, and the absorbance at 405 nm was measured.
(§2) Moreover, an inhibitory constant Ki of the present (Asn^55-Ala^107) SLPI was calculated on the basis of the above data by a method of Dixon, M. and Webb, E. C. (1979), Enzyme, Longman or a method of Henderson, P. J. F. (1972) Biochem. J., 127, 321–333.

[7] = biological target: T3, Calf pancreatic trypsin (Sigma) (calf (bovine), UniProt P00760); assay: as above
Experimental: as §1, §2

[8] = biological target: T2, Polymorphonuclear leukocyte elastase …; assay: enzyme inhibition with chromogenic substrate, Ki by the Henderson method
Experimental: as §1, §2

[9] = biological target: T3, Calf pancreatic trypsin (Sigma); assay: as above
Experimental: as §1, §2

[10] = biological target: T4, Bovine spleen chymotrypsin (Sigma) (bovine, UniProt P00766); assay: cell-based or functional assay
[11] = biological target: T5, Porcine spleen elastase (Sigma) (porcine, UniProt P00772); assay: cell-based or functional assay
[12] = biological target: T1, Human cathepsin G (EPC Co., Funakoshi …); assay: cell-based or functional assay
[13] = biological target: T4, Bovine spleen chymotrypsin (Sigma); assay: cell-based or functional assay; remark: listed apart in the source
[14] = biological target: T5, Porcine spleen elastase (Sigma); assay: cell-based or functional assay; remark: listed apart in the source
[15] = biological target: T1, Human cathepsin G (EPC Co., Funakoshi …); assay: cell-based or functional assay; remark: listed apart in the source
[16] = biological target: T2, Polymorphonuclear leukocyte elastase …; assay: enzyme inhibition; method not described
[17] = biological target: T6, Bovine spleen trypsin (Sigma) (bovine, UniProt P00760); assay: enzyme inhibition with Bz-Arg-pNA, Ki by the Henderson method
Experimental: To wells of an ELISA 96-well microtiter plate, were added 120 μl of the buffer, 20 μl of a sample solution of (Arg^59-Ala^107) SLPI obtained in Example 23, and 20 μl of the enzyme solution in this order, an the mixture was reacted at 37° C. for 1 hour. Next, 20 μl of the substrate was added to develop at 25° C. Absorption of the developed color was measured at 405 nm. As a control, SLPI was used.

[18] = biological target: T6, Bovine spleen trypsin (Sigma); assay: as above; remark: listed apart in the source
Experimental: (§3) To wells of an ELISA 96-well microtiter plate, were added 120 μl of the buffer, 20 μl of a sample solution of (Arg^55-Ala^107) SLPI obtained in Example 25, and 20 μl of the enzyme solution in this order, an the mixture was reacted at 37° C. for 1 hour. Next, 20 μl of the substrate was added to develop at 25° C. Absorption of the developed color was measured at 405 nm. As a control, SLPI was used.

[19] = biological target: T2, Polymorphonuclear leukocyte elastase …; assay: enzyme inhibition with MeO-Suc-Ala-Ala-Pro-Val-pNA, Ki by the Henderson method
[20] = biological target: T2, Polymorphonuclear leukocyte elastase …; assay: as above; remark: listed apart in the source
Experimental: as §3

[21] = biological target: T1, Human cathepsin G (EPC Co., Funakoshi …); assay: cell-based or functional assay; remark: listed apart in the source

Binder	IC50 [10]	IC50 [11]	IC50 [12]	IC50 [13]	IC50 [14]	IC50 [15]	Ki [17]	Ki [18]	Ki [19]	Ki [20]	further results
B1	–	–	–	–	–	–	–	–	–	–	concentration of inhibitory protein which exhibits a 50% inhibition [1]: 10 nM; concentration of inhibitory protein which exhibits a 50% inhibition [2]: 200 nM; concentration of inhibitory protein which exhibits a 50% inhibition [3]: > 2 µM; concentration of inhibitory protein which exhibits a 50% inhibition [4]: > 2 µM; concentration of inhibitory protein which exhibits a 50% inhibition [5]: > 2 µM; Ki [6]: 0.03 nM; Ki [7]: 60 nM; Ki [8]: 0.2 nM; Ki [9]: 20 nM
B2	7 nM	13000 nM	5.5 nM	7 nM	13000 nM	5.5 nM	33 nM	33 nM	0.08 nM	0.08 nM	Ki [16]: 0.25 nM
B3	5.8 nM	11000 nM	8 nM	–	–	–	1100 nM	–	0.08 nM	–	IC50 value [21]: 11 nM
B4	–	–	–	6.8 nM	23000 nM	8 nM	–	1100 nM	–	0.09 nM	–
